Results from US20190004063A1.

What was measured:
Assay in all cases: flow cytometry on modified HEK293T cells without CD74
[1] = target: SLA-DQα1*0101 + DQβ1*0303 (pairing 7) on modified HEK293T cells without CD74 (pig)
[2] = target: SLA-DQα1*0101 + DQβ1*0601 (pairing 8) on modified HEK293T cells without CD74 (pig)
[3] = target: SLA-DQα1*0204 + DQβ1*0303 (pairing 5) on modified HEK293T cells without CD74 (pig)
[4] = target: SLA-DQα1*0204 + DQβ1*0601 (pairing 6) on modified HEK293T cells without CD74 (pig)
[5] = target: SLA-DRα*020102 + DQβ1*0303 (pairing 9) on modified HEK293T cells without CD74 (pig)
[6] = target: SLA-DRα*020102 + DRβ1*0403 (pairing 1) on modified HEK293T cells without CD74 (pig)
[7] = target: SLA-DRα*020102 + DRβ1*1001 (pairing 2) on modified HEK293T cells without CD74 (pig)
[8] = target: SLA-DRα*w04 + DQβ1*0303 (pairing 10) on modified HEK293T cells without CD74 (pig)
[9] = target: SLA-DRα*w04 + DRβ1*0403 (pairing 3) on modified HEK293T cells without CD74 (pig)
[10] = target: SLA-DRα*w04 + DRβ1*1001 (pairing 4) on modified HEK293T cells without CD74 (pig)

Measured: background MFI

CerCLIP.1, a monoclonal antibody specific for invariant chain peptides associated with Class II SLA
1000 MFI: all assays above
